# Test results as given in patent US20240317846A1 (priority 2021, published 2024).
# Where “and” joins values, the source holds several entries; their conditions need not be identical. Equal entries are not always repeated. Entries after “also recorded” stand apart in the source; their conditions may differ. Where two headings read alike, the source gives them in different places. Marks after values point to notes of the source that are not given here.
# B1: Lenzilumab: first-in-class Humaneered recombinant monoclonal antibody targeting human GM-CSF, derived from mouse antibody LMM102 (antibody, chains of the INN, looked up, V domains shown)
# VH: QVQLVQSGAEVKKPGASVKVSCKASGYSFTNYYIHWVRQAPGQRLEWMGWINAGNGNTKYSQKFQGRVTITRDTSASTAYMELSSLRSEDTAVYYCVRRQRFPYYFDYWGQGTLVTVSS
# VL: EIVLTQSPATLSVSPGERATLSCRASQSVGTNVAWYQQKPGQAPRVLIYSTSSRATGITDRFSGSGSGTDFTLTISRLEPEDFAVYYCQQFNKSPLTFGGGTKVEIK
# What was measured:
# [1] = system: COVID-19 associated chronic ARDS; format: in vivo, human
# Experimental: Hospitalized subject with confirmed COVID-19 pneumonia and established risk factors for poor outcomes was treated in the ICU for 12 weeks using standard supportive care for chronic acute respiratory distress syndrome (ARDS). […] Patient characteristics, clinical and laboratory outcomes, and adverse events were recorded through duration of hospitalization.
# [2] = molecular target: glycosylated human GM-CSF (Homo sapiens, UniProt P04141); assay: Binding affinity for GM-CSF
# Chain of glycosylated human GM-CSF (P04141 18-144): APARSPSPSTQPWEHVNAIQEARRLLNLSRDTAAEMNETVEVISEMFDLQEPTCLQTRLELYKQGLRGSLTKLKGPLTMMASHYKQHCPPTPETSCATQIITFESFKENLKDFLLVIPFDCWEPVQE
# [3] = Pre-clinical toxicology program; format: in vivo; details: data not shown
# [4] = Four completed clinical trials (healthy volunteers, asthma, rheumatoid arthritis, chronic myelomonocytic leukemia); format: in vivo, human; details: 113 individuals received lenzilumab
# [5] = system: SARS-CoV-2 infection; format: in vivo, human; details: paper examples
# [6] = system: severe and critical COVID-19 pneumonia
# [7] = system: severe COVID-19 pneumonia
# [8] = system: COVID-19 pneumonia
# [9] = system: severe COVID-19 pneumonia; details: for Time to Recovery: placebo 8
# [10] = lenzilumab alone or in the combination of the example
# [11] = one patient, 48 hours post-lenzilumab vs pretreatment
# [12] = Lenzilumab group n = 12, control 11
# [13] = repeated measures ANOVA, P<0.001
molecule,measurement,setting,value
B1,Oxygen demand one week post lenzilumab,"[1]; person, lenzilumab on week 13 of hospitalization",decreased from high-flow to low-flow nasal cannula
same,Infusion-related or systemic side effects,[1]; single patient,No infusion-related or systemic side effects
same,Lymphopenia post lenzilumab,[1]; single patient,appeared to improve
same,Time from lenzilumab to discharge home,"[1]; single patient, discharged on 4L nasal cannula",Sixteen
same,Binding affinity,[2],picomolar range
same,Kd,[2],0.025 nM
same,Off-rate,[2],slow off-rate
same,No Observed Adverse Effect Level (NOAEL),[3],> 100 mg/kg/week
same,Safety in completed clinical development studies,[4],No treatment emergent serious adverse events (SAEs) or Suspected Unexpected Serious Adverse Reactions (SUSARSs); also recorded: very well tolerated
same,2 point improvement in the NIAID eight point ordinal hospital scale,[5],faster
same,Number of hospital days,[5],reduction
same,Permanent pulmonary function impairment,[5],reduction
same,"Time to recovery (6, 7, or 8 on the eight point ordinal hospital scale)",[5],faster
same,Mortality rates,[5]; [10],reduction
same,Patients requiring ICU admission,[5]; [10],reduction
same,Patients requiring mechanical ventilation,[5]; [10],reduction
same,Median time to discharge post-lenzilumab,[6]; 11 discharged patients,5 days
same,Infusion reactions,[6]; 12 patients,no infusion reactions
same,Median time to a 2-point clinical improvement,[6]; 12 patients,5 days
same,Patients discharged,[6]; 12 patients,11 of 12
same,Patients discharged on home oxygen,[6]; 12 patients,42%
same,Patients who required invasive mechanical ventilation,[6]; 12 patients,8.3%
same,"Clinical improvement of at least 2 points on the 8-point ordinal clinical endpoints scale, proportion of patients","[6]; 12 patients, 600 mg IV every 8 h x3",92% and 91.7%
same,Mean IL-6 on day 3 following lenzilumab,[6]; baseline 26.8 pg/mL,16.1 pg/mL
same,Mean CRP on day 3 following lenzilumab,[6]; baseline 137.3 mg/L,51.2 mg/L
same,Absolute lymphocyte count on day 3,[6]; baseline 0.89,1.14e+09 L⁻¹
same,Mean absolute neutrophil count on day 3 post lenzilumab,[6]; baseline 5.1,4.8e+09 L⁻¹
same,Mean hemoglobin on day 3 post lenzilumab,[6]; baseline 12.9,11.4 g/dL
same,Mean temperature at day 3,[6]; baseline 37.95,36.97
same,Proportion of patients with SpO2/FiO2<315 at the end of observation,[6]; baseline 67%,8%
same,Mean platelet count on day 3 post lenzilumab,[6]; baseline 217.7,2.618e+11 L⁻¹
same,D-dimer after lenzilumab,[6]; individual patients 2 and 4,1507 ng/mL and 1802 ng/mL
same,"Ferritin after lenzilumab, at discharge",[6]; individual patients 3 and 5,571 µg/L and 1223 µg/L
same,Patients whose SpO2/FiO2 improved to >315 on day 1 post-lenzilumab,[6]; of 8 patients with SpO2/FiO2<315 at baseline,four
same,Patients with a 2-point improvement on 8-point ordinal scale,[6]; of 12 patients,1 patient
same,Patients with ≥3-point improvement on 8-point ordinal scale,[6]; of 12 patients,10 patients
same,"Cytokines involved in cytokine storm (G-CSF, MDC, GM-CSF, IL-1α, IFN-γ, IL-7, FLT-3L, IL-1rα, IL-6, IL-12p70)",[6]; [11],significant reduction
same,LDH after lenzilumab,"[6]; patient 4, hospital day 3",388 U/L
same,Range of days to discharge,[6]; patient 9 pending,(3-14)*** days
same,Patients requiring mechanical invasive ventilation,[6]; patients 1-5,None
same,Time to fever resolution after lenzilumab administration,[6]; patients febrile at baseline,≤ 48 h
same,"Time to clinical two point improvement, faster than comparator antivirals","[6]; vs Remdesivir, Lopinavir-Ritonavir, Tocilizumab cohorts",more than 50%
same,Infusion reactions,[7]; 12 patients,no infusion reactions
same,Treatment-emergent adverse events attributable to lenzilumab,[7]; 12 patients,No treatment-emergent adverse events attributable to lenzilumab
same,Ventilator-free survival vs untreated group,"[7]; Kaplan-Meier, log-rank P=0.06",favored the lenzilumab cohort
same,Days to resolution of fever,[7]; Lenzilumab group n = 12,2 days
same,Incidence of IMV,[7]; Lenzilumab group n = 12,(8%)
same,"Incidence of IMV and/or death, number of patients",[7]; Lenzilumab group n = 12,1
same,"Incidence of IMV, number of patients",[7]; Lenzilumab group n = 12,1
same,"Incidence of clinical improvement, number of patients",[7]; Lenzilumab group n = 12,11
same,Incidence of death,[7]; Lenzilumab group n = 12,(8%)
same,"Incidence of death, number of patients",[7]; Lenzilumab group n = 12,1
same,Patients free of ARDS (SpO2/FiO2 of 315 or higher) by the end of observation,[7]; Lenzilumab group n = 12,92%
same,Days to clinical improvement (median),[7]; [12],5 days
same,Days to discharge from hospital (median),[7]; [12],5 days
same,CRP reduction (mean),"[7]; after 4 days of treatment, control −0.95",135.8
same,IL-6 concentration on day 4 following lenzilumab,[7]; baseline 28.6 pg/mL,8.52 pg/mL
same,Mean absolute neutrophil count on day 4 post lenzilumab,[7]; baseline 5.1,4.8e+09 L⁻¹
same,Mean hemoglobin on day 4 post lenzilumab,[7]; baseline 12.9,11.4 g/dL
same,IL-6 reduction,[7]; baseline vs day 4,20.1
same,ALC increase (mean),"[7]; baseline vs day 4, control 0.03",0.46 × 10*9/L
same,Mean temperature reduction,"[7]; baseline vs day 4, control 0.459",1.075
same,PLT increase (mean),"[7]; baseline vs day 4, control 63.2",52.5
same,Mean CRP after treatment,"[7]; day 4, baseline 172.2 mg/L",36.4 mg/L
same,Cytokines and chemokines involved in the cytokine storm,[7]; [11],significant reduction
same,Mean SpO2/FiO2 over time post-treatment vs untreated,[7]; [13],statistically significant difference
same,Proportion of patients free of ARDS over time vs untreated,[7]; [13],significantly increased
same,"Survival, Kaplan-Meier event estimate (mortality)","[8]; mITT, lenzilumab arm, day 28, placebo 13.9",9.6%
same,"Ventilator-Free Survival, Kaplan-Meier event estimate (IMV and/or death)","[8]; mITT, lenzilumab arm, day 28, placebo 22.1",15.6%
same,SAEs attributed to lenzilumab,[8]; phase 3 trial,none were attributed to lenzilumab
same,Safety and tolerability,[8]; phase 3 trial,safe and well-tolerated
same,Increased likelihood of survival without IMV,"[8]; relative to placebo, mITT",54%
same,Increased likelihood of survival,"[8]; relative to placebo, not statistically significant",39% (NS)
same,Acute kidney injury,"[9]; Grade ≥3, Lenzilumab N = 255",5 (2.0) n (%)
same,Acute respiratory distress syndrome,"[9]; Grade ≥3, Lenzilumab N = 255",4 (1.6) n (%)
same,Acute respiratory failure,"[9]; Grade ≥3, Lenzilumab N = 255",18 (7.1) n (%)
same,Cardiac arrest,"[9]; Grade ≥3, Lenzilumab N = 255",8 (3.1) n (%)
same,Cardiac disorders,"[9]; Grade ≥3, Lenzilumab N = 255",15 (5.9) n (%)
same,Cardio-respiratory arrest,"[9]; Grade ≥3, Lenzilumab N = 255",3 (1.2) n (%)
same,General disorders and administration site conditions,"[9]; Grade ≥3, Lenzilumab N = 255",4 (1.6) n (%)
same,Hypotension,"[9]; Grade ≥3, Lenzilumab N = 255",2 (0.8) n (%)
same,Hypoxia,"[9]; Grade ≥3, Lenzilumab N = 255",15 (5.9) n (%)
same,Infections and infestations,"[9]; Grade ≥3, Lenzilumab N = 255",10 (3.9) n (%)
same,Multiple organ dysfunction syndrome,"[9]; Grade ≥3, Lenzilumab N = 255",3 (1.2) n (%)
same,Pneumonia bacterial,"[9]; Grade ≥3, Lenzilumab N = 255",0 (0.0) n (%)
same,Pulmonary embolism,"[9]; Grade ≥3, Lenzilumab N = 255",5 (2.0) n (%)
same,Renal and urinary disorders,"[9]; Grade ≥3, Lenzilumab N = 255",5 (2.0) n (%)
same,Respiratory failure,"[9]; Grade ≥3, Lenzilumab N = 255",24 (9.4) n (%)
same,"Respiratory, thoracic and mediastinal disorders","[9]; Grade ≥3, Lenzilumab N = 255",64 (25.1) n (%)
same,Sepsis,"[9]; Grade ≥3, Lenzilumab N = 255",2 (0.8) n (%)
same,Septic shock,"[9]; Grade ≥3, Lenzilumab N = 255",5 (2.0) n (%)
same,Shock,"[9]; Grade ≥3, Lenzilumab N = 255",3 (1.2) n (%)
same,Vascular disorders,"[9]; Grade ≥3, Lenzilumab N = 255",10 (3.9) n (%)
same,Kaplan-Meier Estimate of Failure to Achieve SWOV,[9]; ITT (n = 520),18.9%
same,Kaplan-Meier Estimate of Failure to Achieve SWOV,"[9]; ITT subgroup n = 338, placebo 27.8%",17.8%
same,Kaplan-Meier Estimate of Failure to Achieve SWOV,"[9]; ITT, CRP <150 mg/L and age <85 (n = 359), placebo 22.6%",11.5%
same,Safety and tolerability,[9]; LIVE-AIR,safe and well tolerated
same,Any AE ≥ Grade 3,[9]; Lenzilumab N = 255,68 (26.7) n (%)
same,Serum CRP levels following treatment,"[9]; from two days after administration for 28 days, only in baseline CRP<150 mg/L",decreased CRP levels
same,Attributable serious adverse events,"[9]; incl. hematologic, liver enzyme abnormalities, pulmonary alveolar proteinosis, infection",no attributable serious adverse events
same,Time to Recovery,[9]; mITT (n = 236),8 median days
same,Mortality,"[9]; mITT (n = 236), placebo 13.9",9.6%
same,"Incidence IMV, ECMO or death","[9]; mITT (n = 236), placebo 21.4",15.4%
same,Kaplan-Meier Estimate of Failure to Achieve SWOV,"[9]; mITT (n = 479), Day 28, placebo 22.1%",15.6%
same,Kaplan-Meier Estimate of Failure to Achieve SWOV,"[9]; mITT subgroup n = 331 (remdesivir plus steroids per text), placebo 26.9%",16.3%
same,Kaplan-Meier Estimate of Failure to Achieve SWOV,"[9]; mITT, >2 days prior (n = 165), placebo 14.4%",13.7%
same,Kaplan-Meier Estimate of Failure to Achieve SWOV,"[9]; mITT, CRP <150 mg/L and age <85 (n = 336), placebo 21.1%",8.5%
same,Time to Recovery,"[9]; mITT, CRP <150 mg/L, Age <85 (n = 157)",7 median days
same,Mortality,"[9]; mITT, CRP <150 mg/L, Age <85 (n = 157), placebo 13.8",6.6%
same,"Incidence IMV, ECMO or death","[9]; mITT, CRP <150 mg/L, Age <85 (n = 157), placebo 19.5",7.2%
same,Improvement in Time to Recovery,"[9]; mITT, CRP<150 mg/L and age<85",36%
same,Kaplan-Meier Estimate of Failure to Achieve SWOV,"[9]; mITT, hospitalized 2 days prior or less (n = 297), placebo 27.6%",16.5%
same,Infusion-related reactions,[9]; safety population,no infusion-related reactions
same,"Serious adverse events, subjects","[9]; safety population, placebo 29.6%",24.7%
same,"Adverse events ≥Grade 3, subjects","[9]; safety population, placebo 32.7%",26.7%
same,Improvement in SWOV,[9]; subjects hospitalized <2 days,88%
